{
  "source": "paper PMC6308570",
  "target": "thrombin (UniProt P00734;P00734 328-363;364-622)",
  "assay": "etched fiber Bragg grating biosensor (immobilized aptamer); thrombin 10, 20, 40, 80 nM; 5 mM MgCl2; Affinity buffer 50 mM Tris-HCl pH 7.4, 250 mM NaCl, 5 mM MgCl2; 2 h incubation; surface blocked with 1% BSA; temperature not stated",
  "data": [
    {"binder": "TTTTTAGTCCGTGGTAGGGCAGGTTGGGGTGACT (ssDNA, 5' amino C6 (AmC6F))", "note": "[amine-modified thrombin binding aptamer (29-mer with T5 spacer)]", "values": [
      {"measurement": "binding result", "result": "binds"}
    ]}
  ]
}
